US20220057411A1 (PERSEUS SCIENCE GROUP, published 2022)

B1: PKC13 (5H1/5K1) rabbit anti-PKCg monoclonal antibody (antibody, V domains shown)
VH: QEQLKESGGGLVTPGGTLTLTCTVSGFSLSSYAMSWVRQAPGKGLEWIGIIISGGSAYYATWAKGRFTISKTSTTVDLSITSPTTEDTATYFCARAKSGTYTGDYFTLWGQGTLVTVSS
VL: AFELTQTPASVEAAVGGTVTIKCQASESIGNALAWYQQKPGQPPKLLIYRASTLESGVPSRFKGSGSGTEFTLTISDLECADAATYYCQSYVGSRSTGYNVFGGGTEVVVK
notes: Rabbit IgG heavy chain and rabbit kappa light chain; Entries as printed seem to include a leader; no cleavage site is stated; also called mAb PKC13; PCK13
B2: PKC11 (1H1/1K1) rabbit anti-PKCg monoclonal antibody (antibody, V domains shown)
VH: QSVEESGGRLVTPGTPLALTCTVSGFSLNYYAMNWVRQAPVKGLEWIGVITSDTTYYASWAKGRFTISKTSTTVELQITSPTTEDTATYFCASGGSTTSPALWGQGTLVTVSS
VL: AQVLTQTPSPVSAAVGSTVTINCQASQSVWSKNYLSWFQQKPGQPPKQLIYSASTLASGVPSRFSGSGSGTQFTLTISDVQCDDAATYYCLGSYDCRSADCWTFGGGTEVVVK
notes: Rabbit IgG heavy chain and rabbit kappa light chain; also called mAb PKC11
B3: 20H1/20K3 rabbit anti-PKCg monoclonal antibody clone (antibody, V domains shown)
VH: QSVEESGGRLVTPGTPLTLTCTVSGIDLSSNAMNWVRQAPGKGLEWIGIIGFSGSTNYASWAKGRFTISKTSTTVDLKITSPTTEDTATYFCARGGLNIGMNLWGQGTLVTVSS
VL: AQVLTQTPSPVSAAVGGTVPISCQSSQSVYDNNWLAWYQQKPGQPPKLLVYYASTLASGVPSRFKGSGSGTQFTLTINDLECDDAATYYCAGGYGDTNGGASSFGGGTEVVVK
notes: Rabbit IgG heavy chain and kappa light chain; Entries as printed seem to include a leader; no cleavage site is stated
B4: 4H1/4K1 rabbit anti-PKCg monoclonal antibody clone (antibody, V domains shown)
VH: QSVEESGGRLVTPGTPLTLTCTVSGFSLSLSRNAVSWVRQAPGKGLEWTGIIFGDAKTYYASWAKGRFTISKTATTVDLKITSLTTEDTATYFCVAGTGLWGQGTLVTVSS
VL: AQVLTQTASPVSAAVGSTVTINCQASQSVYNKNRLSWYQQKPGQPPKRLIYSSSTLDSGVPLRFSGSGSGTQFTLTISGVQCDDAATYYCLGSYDCSSADCNAFGGGTEVVVK
notes: as for B3
B5: PKC14 (7H1/7K3) rabbit anti-PKCg monoclonal antibody (antibody, V domains shown)
VH: QSLEESGGDLVQPGASLTLTCTASGFTLTTYWICWVRQAPGKGLEWVACILTGSGSTYYASWVNGRFTISKTSSTTVTLQMTSLTAADTATYFCARYGGDATYNENLWGQGTLVTVSS
VL: AQVLTQTPSSVSAAVGGTVTINCQASQSVYNNNRLSWYQQKPGQPPKRLIYGVSTLYYGVSSRFKGSGSGTQFTLTISGMQCDDAAIYYCLGGYDCASADCYAFGGGTEVVVK
notes: Rabbit IgG heavy chain and rabbit kappa light chain; Entries as printed seem to include a leader; no cleavage site is stated; also called mAb PKC14

Key:
[1] = target: PKCg 49-52 kDa proteolytic fragment (human); assay: chemiluminescent capillary Western/ELISA on human plasma; 49-52 kDa band; sample signal at ROC cut-off
Experimental: (§1) The Sensitivity was calculated using (=SUM individual disease samples)/total of all disease samples). False Positives were calculated using the (=SUM each individual healthy sample/total of all healthy samples). Specificity is defined as (1-False Positives). This statistical method maximizes sensitivity and identifies the probability of false positives. The cut-off point for each ROC curve between healthy and disease samples was calculated and then related to the total chemiluminescence signal that is represented by those probabilities. The cut-off for each sample cohort stained with PKC11, PKC13, and PKC14 antibodies are represented by a line in each graph below.
(§2) Briefly, to conduct the chemiluminescent capillary ELISA in this example, reagents and individual plasma from Normal vs. TBI clinical samples were loaded into an automated Western blot machine (using the Auto-Western service from RayBiotech Life, Inc). In the first step, sample is loaded into the capillary automatically. Proteins are then separated by size as they electophoretically migrate through a stacking and separation matrix. The separated proteins are then immobilized on the capillary wall via a proprietary photoactivated capture chemistry. […] An electropherogram is produced which plots the baseline, molecular weight and quantitative chemiluminescence signal of each peak. The quantitative signal was derived for each molecular weight band in every electropherogram. Each quantitative chemiluminescence signal was generated using the following formula; (C2-C1/C1), where C2 equals Area Under the Curve and C1 equals the baseline for that sample. […] The resulting specific chemiluminescence signal was detected and quantitated, with sensitivity down in the picograms/ml range, providing a direct measure of TBI biomarkers, i.e., PKCg, and/or PKCg proteolytic fragments.

[2] = target: PKCg 49-52 kDa proteolytic fragment (human); assay: chemiluminescent capillary Western/ELISA on human plasma; 49-52 kDa band; signal at ROC cut-off
Experimental: as §1, §2

[3] = target: PKCg 42-48 kDa proteolytic fragment (human); assay: chemiluminescent capillary Western/ELISA on human plasma (stroke vs normal); signal at the ROC point
Experimental: as §1
(§3) Briefly, to conduct the chemiluminescent capillary ELISA in this example, reagents and individual plasma from Normal vs. TBI clinical samples were loaded into an automated Western blot machine (using the Auto-Western service from RayBiotech Life, Inc). In the first step, sample is loaded into the capillary automatically. Proteins are then separated by size as they electophoretically migrate through a stacking and separation matrix. The separated proteins are then immobilized on the capillary wall via a proprietary photoactivated capture chemistry. Target proteins, i.e., PKCg and/or PKCg proteolytic fragments were identified using a primary antibody, e.g., the rabbit monoclonal antibodies described herein, and immunoprobed with an HRP-conjugated secondary goat anti-rabbit IgG antibody and chemiluminescent substrate. An electropherogram is produced which plots the baseline, molecular weight and quantitative chemiluminescence signal of each peak. The quantitative signal was derived for each molecular weight band in every electropherogram. Each quantitative chemiluminescence signal was generated using the following formula; (C2-C1/C1), where C2 equals Area Under the Curve and C1 equals the baseline for that sample. This specific chemiluminescence measure was used in comparisons of all normal human plasma compared to TBI or stroke plasma samples after staining with antibodies, i.e., PKC11, PKC13, or PKC14. Statistical comparisons were made using GraphPad Prism 8 software. The resulting specific chemiluminescence signal was detected and quantitated, with sensitivity down in the picograms/ml range, providing a direct measure of TBI biomarkers, i.e., PKCg, and/or PKCg proteolytic fragments.

[4] = target: T1, PKCg 33-36 kDa proteolytic fragment (human); assay: as above
T1 construct: also called 32-36 kDa fragment
Experimental: as §1, §3

[5] = target: PKCg 53-60 kDa proteolytic fragment (human); assay: as above
Experimental: as §1, §3

[6] = target: PKCg 49-52 kDa proteolytic fragment (human); assay: chemiluminescent capillary Western/ELISA on human plasma; 49-52 kDa band; normal plasma sample
Experimental: as §1
Briefly, to conduct the chemiluminescent capillary ELISA in this example, reagents and individual plasma from Normal vs. TBI clinical samples were loaded into an automated Western blot machine (using the Auto-Western service from RayBiotech Life, Inc). In the first step, sample is loaded into the capillary automatically. […] An electropherogram is produced which plots the baseline, molecular weight and quantitative chemiluminescence signal of each peak. The quantitative signal was derived for each molecular weight band in every electropherogram. Each quantitative chemiluminescence signal was generated using the following formula; (C2-C1/C1), where C2 equals Area Under the Curve and C1 equals the baseline for that sample. […]

[7] = target: T2, full-length human Protein Kinase C, gamma isoform (PKCg), 63-73 kDa (human, UniProt P05129 1-697); assay: chemiluminescent capillary Western/ELISA on human plasma (stroke vs normal); signal at the ROC point
T2 construct: also called PKCγ; full-length PKCg (63-73 kDa)
Experimental: as §1, §3

[8] = target: T2, full-length human Protein Kinase C, …; assay: conclusion; clones came from ELISA/MAPIA screening against PKCg
[9] = target: higher molecular weight band at 95-105 kDa (human); assay: chemiluminescent capillary Western/ELISA on human plasma (stroke vs normal); signal at the ROC point
Experimental: as §1, §3

| Binder | chemiluminescence signal (ROC cut-off, TBI) [1] | chemiluminescence signal (ROC cut-off, stroke) [2] | Signal Chemiluminescence [3] | Signal Chemiluminescence [4] | Signal Chemiluminescence [5] | chemiluminescence signal (normal plasma sample, false positive) [6] | Signal Chemiluminescence [7] | binding result [8] | Signal Chemiluminescence [9] |
| --- | --- | --- | --- | --- | --- | --- | --- | --- | --- |
| B1 | 658 chemiluminescence units | 999 chemiluminescence units | 2210 chemiluminescence units | 319 chemiluminescence units | 3350 chemiluminescence units | – | – | – | – |
| B2 | 710 chemiluminescence units | 797 chemiluminescence units | 637 chemiluminescence units | 126 chemiluminescence units | 1540 chemiluminescence units | 630 chemiluminescence units | 1770 chemiluminescence units | – | – |
| B3 | – | – | – | – | – | – | – | binds | – |
| B4 | – | – | – | – | – | – | – | binds | – |
| B5 | 299 chemiluminescence units | 257 chemiluminescence units | 633 chemiluminescence units | 230 chemiluminescence units | 654 chemiluminescence units | – | 866 chemiluminescence units | – | 443 chemiluminescence units |
